The labels stand for the following.
B1: TPR 5TU (parent)
chain: GGAUCUUCUCGAUCUAACAAAAAAGACAAAUCUGCCACAAAGCUUGAGAGCAUCUUCGGAUGCAGAGGCGGCAGCCUUCGGUGGCGCGAUAGCGCCAACGUUCUCAACUAUGACACGCAAAACGCGUGCUCCGUUGAAUGGAGUUUAUCAUG

This sample holds only a part of the variants without activity.

This data set covers variants of B1. Briefly: polymerase ribozyme fitness, log enrichment relative to wild type (log ratio); higher = more active; in vitro selection for triplet polymerase activity. The procedure, abridged: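 A single round of triplicate in vitro selection, including frozen incubation at −7 °C, was applied to PCR-built, transcribed mutant libraries of each subunit of a heterodimeric triplet polymerase ribozyme. Illumina sequencing of input and output libraries retained genotypes with ≥10 input reads and ≥1 read per output. Fitness is the base-2 logarithm of genotype enrichment divided by wild-type enrichment, from inverse-variance-weighted replicate averages.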
As for C43U U56A C87A G152U, the “polymerase ribozyme fitness (log ratio)” value is not above -4.2. For G42U G71U G88U G92C A97C A122G U134C the value was not above -4.2; for C43A U45G U90A U102G G140A A147C, not above -4.2. For U44A C51U C76U C95A the value was not above -4.2. For C43A A49U G74A G86C C93A C105U U144A the value was not above -4.2; for C43A U44G A64C C118G C131G A137G G152U, not above -4.2; for C43U A52U C85G G133U, not above -4.2. Consider C43A G58C C76A U102C G141A, for which the “polymerase ribozyme fitness (log ratio)” value was not above -4.2.

C43U C57G G70A A89G C93U: the “polymerase ribozyme fitness (log ratio)” value was not above -4.2. Then C43U U61G A64C U77G C85U A110U C116G, with -4.02; and C43A A73G G83A A89U U90C G136C G141C, with not above -4.2; and U44A U53C G86A A147C, with not above -4.2.

As for U44C G50U U101G C131U U139C C149U, the “polymerase ribozyme fitness (log ratio)” value was not above -4.2. Regarding C43A G50A C72U G84U U90A C103A G141U, the “polymerase ribozyme fitness (log ratio)” value was not above -4.2. For the variant C43A A52C C75U U90G C95U C96G C114G U144G, the “polymerase ribozyme fitness (log ratio)” value is not above -4.2. For U44A G48A G58C G83A the value was not above -4.2; for G42U U45A U56A G83A A121U, not above -4.2; for U44A A47C, not above -4.2.

Consider C43U U55G A60U U109A U145C U146C, for which the “polymerase ribozyme fitness (log ratio)” value is not above -4.2. For G42U U56A A120U A142C the value was not above -4.2; for C43G C105A C123G U148A, not above -4.2; for U44A A52C C54A G92A G141C, not above -4.2. Then C43A G58C G81C C95U C96A A122U G126C G143C, with not above -4.2; and C43U G68A G86U, with not above -4.2; and C43A U53A C57A C95U, with not above -4.2. Then G42U G70C G83C G141C, with not above -4.2; and C43U C85A C87U G94C, with not above -4.2. In the case of C43G U56G C96U U139G U148G, the “polymerase ribozyme fitness (log ratio)” value was not above -4.2. Turning to U44A U53A G86U C132U U135G, the “polymerase ribozyme fitness (log ratio)” value is not above -4.2. For U44A G62U G80C G140C the value was not above -4.2; for U44A U104A A115G, not above -4.2; for U44A G88C, not above -4.2.

Take U44A C87A G126U: the “polymerase ribozyme fitness (log ratio)” value is not above -4.2. For C43U A73G the value was not above -4.2. As for C43U G59C U77A U111C, the “polymerase ribozyme fitness (log ratio)” value is not above -4.2. For U44A C85U the value was -4.17. Then C43A A52C G94A, with not above -4.2; and C43A C57G G84A, with not above -4.2.

Consider U44A U61G A66C A91U C132U G141C, for which the “polymerase ribozyme fitness (log ratio)” value was not above -4.2. Then C43G G50C G62A G84A G92C, with not above -4.2; and C43U A49C C96A A107C A113U, with not above -4.2; and C43U A47G A64C G67U C96U G141A, with not above -4.2. Then C43U G86U, with -4.15. For C43U G83U G92A the value was not above -4.2; for C43A C57U C76G C85A G86A G140A, not above -4.2. For C43U C79A, the “polymerase ribozyme fitness (log ratio)” value was -4.15. U44A A89U G92C C95U: the “polymerase ribozyme fitness (log ratio)” value was not above -4.2. Then C43U G48A C57G C85U, with not above -4.2. For U44A U53A G58U G83U U102G A122U the value was not above -4.2; for U44A C57A U82C C95A, not above -4.2; for C43U G46C G83U, not above -4.2. Consider G42U G84U U134C U139G, for which the “polymerase ribozyme fitness (log ratio)” value is not above -4.2. Then G42U U44G A60G G71A G86A A106U U134G U135C, with not above -4.2; and U44A C76A U82G G100A C103G A137G, with not above -4.2.

On to U44A A91G U135C U144C, for which the “polymerase ribozyme fitness (log ratio)” value was not above -4.2. Then C43U C103G, with not above -4.2; and C43G G50U U61C G86A C95U C125U U146G, with not above -4.2; and C43U U56A C72A C85A, with not above -4.2. Then U44A C72G C79A A150C, with not above -4.2; and G42U U55G G59A G88U C96G A98G C118G, with not above -4.2; and U44A G48C C87A A115U C125A, with not above -4.2. Consider U44A G80A A138U A150G, for which the “polymerase ribozyme fitness (log ratio)” value was not above -4.2. For the variant U44C G58A A64G C93G A119G, the “polymerase ribozyme fitness (log ratio)” value is not above -4.2. Then U44A G50U G59A C85A C99G G126U, with not above -4.2; and U44A U53A C79G C85G A119G U135G, with not above -4.2. As for C43U A47U G59A C75A C93U G126C G133A, the “polymerase ribozyme fitness (log ratio)” value was not above -4.2. For C43U C96G the value was not above -4.2; for C43A U53G U56G A97U A137G, not above -4.2. For U44A C72U A73G G86U A138C the value was not above -4.2; for G42U U53C C95G, not above -4.2. Then C43G C69A, with not above -4.2.

With C43U G58A U90C C132A G143U, the “polymerase ribozyme fitness (log ratio)” value is not above -4.2. Then U44A C85A G92A A107U G128U, with not above -4.2; and C43A A66G U77A A97G U146A, with not above -4.2. For U44A U82G G84C C87G A113C C118U the value was not above -4.2; for C43A G48U A60G G83C C87U G126U A138C, not above -4.2; for C43U A52C C57U G83A A89C, not above -4.2. Turning to U44A U55A C63G C85U C87G G92U, the “polymerase ribozyme fitness (log ratio)” value was not above -4.2.

Regarding U44A U53G G67A U78A G81C G88A G92C A138U, the “polymerase ribozyme fitness (log ratio)” value is not above -4.2. With C43U A91U A98G C99U U102G, the “polymerase ribozyme fitness (log ratio)” value was not above -4.2. For G42U U44A C85A C96G A115C C129A the value was not above -4.2; for U44A U77A C95A G143A, not above -4.2. With U44A C75U C76G U77G G92U A115U G140A G152C, the “polymerase ribozyme fitness (log ratio)” value is not above -4.2. For U44A C76U G86U A121U the value was -3.86.

The record behind these values is the RNAGym collection of RNA variant scans (doi:10.1073/pnas.2313332121).
